This is an account of results in publication doi:10.1101/2023.12.11.571162 (2023).

Among the targets are 39G7; 8D1; anti-LHFPL5.
Assay in all cases: BLI
Background: In BLI a coated tip is dipped into the sample, and binding shifts an interference pattern.

Chain of 8D1 (Q99PJ1 27-1943): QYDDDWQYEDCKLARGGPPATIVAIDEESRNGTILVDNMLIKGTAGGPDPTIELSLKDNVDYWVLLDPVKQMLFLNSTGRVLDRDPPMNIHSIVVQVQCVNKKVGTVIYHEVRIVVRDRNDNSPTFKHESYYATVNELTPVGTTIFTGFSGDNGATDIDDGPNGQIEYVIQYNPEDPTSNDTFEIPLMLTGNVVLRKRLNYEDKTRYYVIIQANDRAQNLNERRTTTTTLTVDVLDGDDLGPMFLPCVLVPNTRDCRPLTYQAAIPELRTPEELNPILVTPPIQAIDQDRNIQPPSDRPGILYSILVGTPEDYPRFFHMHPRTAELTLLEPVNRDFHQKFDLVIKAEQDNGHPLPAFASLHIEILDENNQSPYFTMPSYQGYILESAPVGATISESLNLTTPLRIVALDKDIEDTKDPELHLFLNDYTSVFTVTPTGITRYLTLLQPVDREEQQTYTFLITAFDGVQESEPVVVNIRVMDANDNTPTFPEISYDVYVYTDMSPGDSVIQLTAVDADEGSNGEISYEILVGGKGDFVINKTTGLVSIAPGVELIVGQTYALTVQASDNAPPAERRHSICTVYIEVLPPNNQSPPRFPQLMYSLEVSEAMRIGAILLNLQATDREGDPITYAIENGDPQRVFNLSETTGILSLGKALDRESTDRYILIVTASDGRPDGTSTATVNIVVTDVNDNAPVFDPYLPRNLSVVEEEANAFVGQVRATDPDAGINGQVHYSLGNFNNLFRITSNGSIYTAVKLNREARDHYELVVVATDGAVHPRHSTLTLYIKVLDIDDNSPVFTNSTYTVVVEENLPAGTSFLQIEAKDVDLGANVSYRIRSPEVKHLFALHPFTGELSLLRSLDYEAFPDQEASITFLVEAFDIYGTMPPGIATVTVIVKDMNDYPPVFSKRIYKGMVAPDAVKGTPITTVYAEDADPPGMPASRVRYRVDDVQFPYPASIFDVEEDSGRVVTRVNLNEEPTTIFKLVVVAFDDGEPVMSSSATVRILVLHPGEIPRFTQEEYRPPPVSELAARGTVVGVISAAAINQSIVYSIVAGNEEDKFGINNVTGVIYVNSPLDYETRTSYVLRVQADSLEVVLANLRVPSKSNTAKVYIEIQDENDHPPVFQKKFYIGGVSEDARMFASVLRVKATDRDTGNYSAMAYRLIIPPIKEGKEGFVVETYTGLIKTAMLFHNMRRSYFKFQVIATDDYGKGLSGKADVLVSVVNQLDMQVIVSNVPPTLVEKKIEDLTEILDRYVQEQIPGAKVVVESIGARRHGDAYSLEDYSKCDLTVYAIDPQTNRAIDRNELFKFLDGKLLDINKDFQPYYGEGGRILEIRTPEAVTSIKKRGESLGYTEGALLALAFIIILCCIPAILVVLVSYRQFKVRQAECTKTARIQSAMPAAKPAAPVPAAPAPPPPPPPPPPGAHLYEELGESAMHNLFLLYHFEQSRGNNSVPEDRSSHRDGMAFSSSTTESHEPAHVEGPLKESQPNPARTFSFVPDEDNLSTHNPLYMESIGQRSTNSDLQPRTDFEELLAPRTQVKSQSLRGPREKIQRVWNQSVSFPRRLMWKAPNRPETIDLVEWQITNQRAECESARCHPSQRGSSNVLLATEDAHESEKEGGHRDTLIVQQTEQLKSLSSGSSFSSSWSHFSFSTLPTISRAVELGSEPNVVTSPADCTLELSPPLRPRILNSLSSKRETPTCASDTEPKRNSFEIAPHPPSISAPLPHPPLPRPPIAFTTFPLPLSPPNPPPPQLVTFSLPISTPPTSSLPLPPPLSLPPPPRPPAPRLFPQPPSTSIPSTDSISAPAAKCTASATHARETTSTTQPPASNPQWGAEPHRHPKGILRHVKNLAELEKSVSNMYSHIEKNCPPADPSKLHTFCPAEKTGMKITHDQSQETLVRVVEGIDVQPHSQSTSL
Chain of 39G7 (Q99PJ1 27-1943): as above

B1: recombinant protocadherin-15 (PCDH15), Mus musculus, His-tagged construct co-expressed with LHFPL5 (natural protein)
chain: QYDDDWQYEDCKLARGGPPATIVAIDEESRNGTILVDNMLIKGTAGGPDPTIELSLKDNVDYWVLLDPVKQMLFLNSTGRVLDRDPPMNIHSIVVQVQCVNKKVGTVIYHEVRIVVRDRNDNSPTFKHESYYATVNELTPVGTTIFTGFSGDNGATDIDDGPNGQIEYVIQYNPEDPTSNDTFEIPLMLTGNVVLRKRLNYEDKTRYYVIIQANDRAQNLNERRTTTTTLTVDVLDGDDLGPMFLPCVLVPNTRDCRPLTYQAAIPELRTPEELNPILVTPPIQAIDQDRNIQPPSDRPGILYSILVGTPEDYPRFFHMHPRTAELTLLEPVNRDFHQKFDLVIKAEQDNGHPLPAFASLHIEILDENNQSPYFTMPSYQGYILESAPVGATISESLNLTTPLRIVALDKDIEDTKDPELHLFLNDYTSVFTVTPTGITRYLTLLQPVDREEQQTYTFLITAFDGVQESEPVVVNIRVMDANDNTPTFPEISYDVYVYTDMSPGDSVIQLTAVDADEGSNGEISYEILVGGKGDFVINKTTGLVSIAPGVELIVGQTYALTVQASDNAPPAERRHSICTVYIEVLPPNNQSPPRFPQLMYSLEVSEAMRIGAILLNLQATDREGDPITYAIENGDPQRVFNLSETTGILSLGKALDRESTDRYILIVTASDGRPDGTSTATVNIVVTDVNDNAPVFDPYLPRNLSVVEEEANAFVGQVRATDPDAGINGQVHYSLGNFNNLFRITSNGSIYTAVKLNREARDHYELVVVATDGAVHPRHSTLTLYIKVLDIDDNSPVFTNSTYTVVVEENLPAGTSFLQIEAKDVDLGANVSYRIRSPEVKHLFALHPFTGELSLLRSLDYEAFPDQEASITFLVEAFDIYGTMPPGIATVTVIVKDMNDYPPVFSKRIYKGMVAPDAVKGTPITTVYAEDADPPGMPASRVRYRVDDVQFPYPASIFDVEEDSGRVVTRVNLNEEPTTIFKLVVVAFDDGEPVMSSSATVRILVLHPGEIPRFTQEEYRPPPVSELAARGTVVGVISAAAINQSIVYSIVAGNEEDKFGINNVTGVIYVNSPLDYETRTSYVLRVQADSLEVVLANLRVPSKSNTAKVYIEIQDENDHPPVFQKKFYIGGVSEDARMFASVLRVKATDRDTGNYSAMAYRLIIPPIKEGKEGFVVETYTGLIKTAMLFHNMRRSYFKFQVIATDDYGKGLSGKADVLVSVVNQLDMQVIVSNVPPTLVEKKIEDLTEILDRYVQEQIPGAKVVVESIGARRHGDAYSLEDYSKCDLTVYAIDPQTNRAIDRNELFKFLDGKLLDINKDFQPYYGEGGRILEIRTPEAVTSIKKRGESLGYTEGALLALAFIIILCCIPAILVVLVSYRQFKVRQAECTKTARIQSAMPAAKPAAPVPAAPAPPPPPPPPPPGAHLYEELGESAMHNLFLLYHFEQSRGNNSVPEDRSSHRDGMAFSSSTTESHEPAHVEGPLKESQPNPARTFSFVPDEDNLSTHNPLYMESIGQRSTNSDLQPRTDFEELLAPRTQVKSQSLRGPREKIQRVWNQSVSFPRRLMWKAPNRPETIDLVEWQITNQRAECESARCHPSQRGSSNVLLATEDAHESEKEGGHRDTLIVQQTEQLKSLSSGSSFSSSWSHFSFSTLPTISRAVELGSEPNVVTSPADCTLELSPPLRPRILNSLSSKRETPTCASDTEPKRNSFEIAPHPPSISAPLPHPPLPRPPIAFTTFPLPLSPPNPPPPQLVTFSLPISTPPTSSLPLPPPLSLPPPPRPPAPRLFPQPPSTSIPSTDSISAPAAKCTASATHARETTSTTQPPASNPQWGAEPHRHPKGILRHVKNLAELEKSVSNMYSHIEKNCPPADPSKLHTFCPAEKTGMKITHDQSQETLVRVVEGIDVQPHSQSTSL
As for B1, the values for the Kd in the assay with 39G7 and with 8D1 were 0.2 nM and 0.05 nM, respectively. Further, the koff turned out to be 2e-05 s⁻¹ in the assay with 39G7 and 3e-05 s⁻¹ in the assay with 8D1.

B2: recombinant lipoma HMGIC fusion partner-like protein 5 (LHFPL5), Mus musculus, strep-tagged construct co-expressed with PCDH15 (natural protein)
chain: MVKLLPAQEAAKIYHTNYVRNSRAVGVMWGTLTICFSVLVMALFIQPYWIGDSVSTPQAGYFGLFSYCVGNVLSSELICKGGPLDFSSIPSRAFKTAMFFVALAMFLIIGSIICFSLFFVCNTATVYKICAWMQLAAATGLMIGCLVYPDGWDSSEVRRMCGEQTGKYTLGHCTIRWAFMLAILSIGDALILSFLAFVLGYRQDKLLPDDYKADGNEEV
Consider B2, for which, in the assay with anti-LHFPL5, the equilibrium dissociation constant (Kd) was determined as 1 nM and the koff stood at 5e-05 s⁻¹.

A word on the Kd: it is a measure of binding affinity in units of concentration. Read a low Kd as higher affinity. Usually koff stands for the first-order rate constant of dissociation.
